# From publication PMC11197336
# Tests used:
# [1] = target: SepM_G178D (Streptococcus mutans); assay: MST; SepM (50 nM) labelled on its His-tag with RED-tris-NTA; CSP-21 in a 16-point serial dilution from 100 µM; PBS pH 5.5; 25 °C; Monolith NT.115, triplicate
# [2] = target: SepM_D221N (Streptococcus mutans); assay: as above
# [3] = target: SepM_control (Streptococcus mutans); assay: as above
# [4] = target: SepM_G178D (Streptococcus mutans); assay: MST; SepM (50 nM) labelled on its His-tag with RED-tris-NTA; CSP-21 in a 16-point serial dilution from 100 µM; PBS pH 5.5; 37 °C; Monolith NT.115, triplicate
# [5] = target: SepM_D221N (Streptococcus mutans); assay: as above
# [6] = target: SepM_control (Streptococcus mutans); assay: as above
# [7] = target: SepM_G178D (Streptococcus mutans); assay: MST; SepM (50 nM) labelled on its His-tag with RED-tris-NTA; CSP-21 in a 16-point serial dilution from 100 µM; PBS pH 7.5; 37 °C; Monolith NT.115, triplicate
# [8] = target: SepM_D221N (Streptococcus mutans); assay: as above
# [9] = target: SepM_control (Streptococcus mutans); assay: as above
# [10] = target: SepM_G178D (Streptococcus mutans); assay: MST; SepM (50 nM) labelled on its His-tag with RED-tris-NTA; CSP-21 in a 16-point serial dilution from 100 µM; PBS pH 7.5; 25 °C; Monolith NT.115, triplicate
# [11] = target: SepM_D221N (Streptococcus mutans); assay: as above
# [12] = target: SepM_control (Streptococcus mutans); assay: as above
substance,measurement,setting,value
CSP-21 (peptide),Kd,[1],44.2 µM
same,Kd,[2],8.25 µM
same,Kd,[3],33.1 µM
same,Kd,[4],21.4 µM
same,Kd,[5],7.52 µM
same,Kd,[6],12.8 µM
same,Kd,[7],85 µM
same,Kd,[8],28.7 µM
same,Kd,[9],29.3 µM
same,Kd,[10],3.02 µM
same,Kd,[11],20.8 µM
same,Kd,[12],15.9 µM
